According to patent US20240182549A1, “PEPTIDES AND ANTIBODY FUSIONS THAT BIND TO SARS-COV-2 AND METHODS OF USING SAME” (priority 2021, published 2024):
Ends that are not written are not given here.

Experiments:
[1] = target: T1, S protein ECD (Severe acute respiratory syndrome coronavirus 2, UniProt P0DTC2, K986P/R682S/R683S/R685S/V987P)
[2] = target: T1, S protein ECD; remark: listed apart in the source
[3] = target: SARS-CoV-2 S protein (Severe acute respiratory syndrome coronavirus 2, UniProt P0DTC2, K986P/R682S/R683S/R685S/V987P)

With “p16 (DFDFAENWMEQLKVML; not fully specified)” the “binding to S protein ectodomain (in words)” value [1] was “did not exhibit detectable binding”, the “peptide-phage binding to ECD blocked by NTD-binding antibodies” value [2] was “blocked” and the “peptide-phage binding to ECD blocked by RBD-binding antibodies” value [2] was “not by those that bound to the ACE2-binding site of the RBD”. For the same substance, the “affinity improvement over 15033” value [3] was “significant affinity improvement”.

“p102 (ECWEWSYQLQEWSPCP; not fully specified; cysteine pairing not given here)” was tested, and the “peptide-phage binding to ECD blocked by NTD-binding antibodies” value [2] was “not by those that bound to the NTD” and the “peptide-phage binding to ECD blocked by RBD-binding antibodies” value [2] was “blocked”.
